The record followed here is PMC9594044.

Usually stoichiometry N stands for the number of molecules, sites or subunits per partner or assembly.

The target of the experiment is PtTamH (Pseudoalteromonas tunicata). The experiment can be described thus: SEC; size exclusion chromatography of purified recombinant PtTamH after IMAC; retention volume corresponds to >200 kDa. Background: SEC sorts molecules by how far they enter the pores of the column.

Take PtTamH (enzyme): the stoichiometry N amounted to 2.
